Experimental data taken from the supplement of paper PMC9942255.

Tested on: Bacillus subtilis DB104 (SP-AmyQ fusion secretion)
Assay: AmyQ secretion efficiency, weighted average sort bin (1 = best secretion, 10 = worst) (bin number (weighted average, 1-10)); higher = lower secretion efficiency
In short: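 Secretion score gives the read-frequency-weighted average bin number, normalised to beads per bin, with low-abundance sequences left out. A B. subtilis DB104 library expressing mature AmyQ fused to designed signal peptides, integrated at amyE, was encapsulated with fluorescein-starch at about 0.3 cells per ~65 nL alginate bead. Beads were grown about 13 h at room temperature, stained with nile red, and the occupied ones were sorted by large-particle flow cytometry into 10 equally populated bins by green/red fluorescence ratio before the amplicons from each bin were Illumina-sequenced.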

Row | Sequence | AmyQ secretion efficiency
1 | MNLRKIILLSSALSLGMLVSAAPVLATSS | 2.82
2 | MNLRKIKKSSALSLGMLVSAAPVLATSS | 5.42
3 | MNLRKILLFIALFLMMLTVSAAPVLATSS | 1.67
4 | MNLRKILLSSALSLGMLEDDAPVLATSS | 2.76
5 | MNLRKILLSSALSLGMLEEEDEEVLATSS | 4.45
6 | MNLRKILLSSALSLGMLFSFAFVSAAPVLATSS | 2.03
7 | MNLRKILLSSALSLGMLKRKAPVLATSS | 7.26
8 | MNLRKILLSSALSLGMLPSAAPVLATSS | 2.71
9 | MNLRKILLSSALSLGMLTLFFLSAVTVSAAPVLATSS | 1.71
10 | MNLRKILLSSALSLGMLVSAAPALATSS | 2.26
11 | MNLRKILLSSALSLGMLVSAAPCLATSS | 2.03
12 | MNLRKILLSSALSLGMLVSAAPELATSS | 3.72
13 | MNLRKILLSSALSLGMLVSAAPFLATSS | 6.67
14 | MNLRKILLSSALSLGMLVSAAPGLATSS | 3.12
15 | MNLRKILLSSALSLGMLVSAAPLLATSS | 4.04
16 | MNLRKILLSSALSLGMLVSAAPQLATSS | 4.11
17 | MNLRKILLSSALSLGMLVSAAPTLATSS | 2.34
18 | MNLRKILLSSALSLGMLVSAAPVLARKR | 5.51
19 | MNLRKILLSSALSLGMLVSAAPVLATEE | 1.83
20 | MNLRKILLSSALSLGMLVSAAPVLATSE | 1.92
21 | MNLRKILLSSALSLGMLVSAAPVLDTSS | 6.16
22 | MNLRKILLSSALSLGMLVSAAPVLETSS | 7.05
23 | MNLRKILLSSALSLGMLVSAAPVLGTSS | 4.45
24 | MNLRKILLSSALSLGMLVSAAPVLHTSS | 6.17

Row | Sequence | AmyQ secretion efficiency
25 | MNLRKILLSSALSLGMLVSAAPVLLTSS | 7.26
26 | MNLRKILLSSALSLGMLVSAAPVLMTSS | 4.51
27 | MNLRKILLSSALSLGMLVSAAPVLNTSS | 5.87
28 | MNLRKILLSSALSLGMLVSAAPVLQTSS | 5.33
29 | MNLRKILLSSALSLGMLVSAAPVLSTSS | 4.72
30 | MNLRKILLSSALSLGMLVSAAPVLVTSS | 6.87
31 | MNLRKILLSSALSLGMLVSAAPVLWTSS | 6.71
32 | MNLRKILLSSALSLGMLVSAAPVLYTSS | 7.31
33 | MNLRKILLSSALSLGMLVSAAPWLATSS | 6.1
34 | MNLRKILLSSALSLGMLVSAAPYLATSS | 5.88
35 | MNLRKILLSSALSLGMLVVSAAPVLATSS | 1.4
36 | MNLRKILLSSALSLVSAAPVLATSS | 3.92
37 | MNLRKIMSIMNIILLSSALSLGMLVSAAPVLATSS | 2.04
38 | MNLRKIRKKRALSLGMLVSAAPVLATSS | 7.46
39 | MNLRKIRRKKKKSLGMLVSAAPVLATSS | 7.69
40 | MNLRKNSFFILLSSALSLGMLVSAAPVLATSS | 1.98
41 | MNLRKTYGSSALSLGMLVSAAPVLATSS | 6.93
42 | MNLRKTYSGRGYSLGMLVSAAPVLATSS | 6.74
43 | MNLWMRKTLVVLFTIVTFGLVSPPAALMADKP | 2.15
44 | MNMLKRLSMLTVMIASVFIFSSHALAAQY | 1.63
45 | MNMSITYSLLALLAVVAFAFTDSSKAKAAEA | 2.51
46 | MNRLFMKASLVLFAVVFVFAVKGAPAKAETH | 1.75
47 | MNRRKILLSSALSLGMLVSAAPVLATSS | 2.39
48 | MNSCSQLIVCSLAAILLLIPSVSFAADS | 4.9

Row | Sequence | AmyQ secretion efficiency
49 | MNSMTIWTIILGALLVCCIAVAYTLTKSQAGASSS | 6.92
50 | MNSYINVLTMCFLGLILFVPTALADNS | 1.26
51 | MNTAIIIAIIAAVIVIAALITFNVRNASPG | 8.06
52 | MNVLLSALLLLLFAFEPSASGKKL | 7.25
53 | MPGKSAVLLSLIMLIAGFLISFSFQM | 7.65
54 | MPIFKKVMMCLAVTLVFGSMSFPTLTNSGGFKE | 6.15
55 | MPIKKKCLAVTLVFGSMSFPTLTNSGGFKE | 5.38
56 | MPIKKKVMMCKRVTLVFGSMSFPTLTNSGGFKE | 6.57
57 | MPIKKKVMMCLAVMLVFLMMSFPTLTNSGGFKE | 3.23
58 | MPIKKKVMMCLAVTLVFGSMDEETLTNSGGFKE | 6.94
59 | MPIKKKVMMCLAVTLVFGSMIFITLTNSGGFKE | 6.04
60 | MPIKKKVMMCLAVTLVFGSMRKRRRKNSGGFKE | 8.69
61 | MPIKKKVMMCLAVTLVFGSMRRKTLTNSGGFKE | 7.75
62 | MPIKKKVMMCLAVTLVFGSMSFPTLTNATSGGFKE | 2.8
63 | MPIKKKVMMCLAVTLVFGSMSFPTLTNDGGFKE | 5.45
64 | MPIKKKVMMCLAVTLVFGSMSFPTLTNEGGFKE | 4.78
65 | MPIKKKVMMCLAVTLVFGSMSFPTLTNKGGFKE | 7.01
66 | MPIKKKVMMCLAVTLVFGSMSFPTLTNSGEFKE | 5.74
67 | MPIKKKVMMCLAVTLVFGSMSFPTLTNSGFFKE | 4.32
68 | MPIKKKVMMCLAVTLVFGSMSFPTLTNSGGDED | 6.4
69 | MPIKKKVMMCLAVTLVFGSMSFPTLTNSGGFPE | 5.65
70 | MPIKKKVMMCLAVTLVFGSMSFPTLTNSGGFSG | 3.08
71 | MPIKKKVMMCLAVTLVFGSMSFPTLTNSGNFKE | 5.35
72 | MPIKKKVMMCLAVTLVFGSMSFPTLTNVGGFKE | 5.79

Row | Sequence | AmyQ secretion efficiency
73 | MPIKKKVMMCLAVTLVFGSMSFPTLTNWGGFKE | 7.59
74 | MPIKKKVMMCLAVTLVFGSMSSGGFKE | 5.66
75 | MPIKKKVMMCSKVTLVFGSMSFPTLTNSGGFKE | 7.22
76 | MPIKKKVMMCTSGTTSFGSMSFPTLTNSGGFKE | 7.09
77 | MPINTFVMMCLAVTLVFGSMSFPTLTNSGGFKE | 7.23
78 | MPKKCSVCLWILVLLLSCLSGKSAYAATS | 2.99
79 | MPRKKKQKYRCLAVTLVFGSMSFPTLTNSGGFKE | 6.94
80 | MPSCKQLIVCSLAAILLLIPSVSFAADS | 3.5
81 | MPTKKKVMKCLAVTLVFGSMSFPTLTNSGGFKE | 7.16
82 | MPVLLSALLLLLFAFEPSASGKKL | 6.19
83 | MPYLKRGGLLLVTGLFMSLFAVTATASAQTG | 1.51
84 | MPYLKRKGYQYQSGLFMSLFAVTATASAQTG | 4.4
85 | MPYLKRKYRLLVTGLFMSLFAVTATASAQTG | 1.78
86 | MPYLKRLSIVLLLLVTGLFMSLFAVTATASAQTG | 1.6
87 | MPYLKRMINFNNVLLLLVTGLFMSLFAVTATASAQTG | 1.05
88 | MPYLKRVLLLLVFFLFMFLFSAVTATASAQTG | 1.35
89 | MPYLKRVLLLLVTGLAVTATASAQTG | 1.97
90 | MPYLKRVLLLLVTGLFMSLAVTATASAQTG | 1.16
91 | MPYLKRVLLLLVTGLFMSLFAVTATASAEDD | 3.73
92 | MPYLKRVLLLLVTGLFMSLFAVTATASAQDD | 3.08
93 | MPYLKRVLLLLVTGLFMSLFAVTATASAQRK | 2.03
94 | MPYLKRVLLLLVTGLFMSLFAVTATASAQTD | 1.91
